Reference: patent US7459439B2, “Granulysin peptides and methods of use thereof” (The Regents of the University of California, priority 2003, dated 2008)

B1: granulysin: 9 kDa arginine-rich protein, late T cell activation marker, member of saposin-like proteins (protein)
chain: GRDYRTCLTIVQKLKKMVDKPTQRSVSNAATRVCRTGRSRWRDVCRNFMRRYQSRVIQGLVAGETAQQICEDLR
modifications: H. sapiens

Columns and labels:
[1] = tested on: TNF-α production by monocytes; assay: Inhibition of TNF-α production by monocytes; format: cell-based; conditions: FIG. 4b
[2] = tested on: IL-12 production by monocytes; assay: Inhibition of IL-12 production by monocytes; format: cell-based; conditions: FIG. 4a
Propionibacterium acnes = assay: Killing of / antimicrobial activity against P. acnes; conditions: FIG. 1-3
Text: The susceptibility of a particular microbe or virus to killing or inhibition by granulysins may be determined by in vitro testing, as detailed in the experimental section. Typically a culture of the microbe is combined with granulysins at varying concentrations for a period of time sufficient to allow the protein to act, usually ranging from about one hour to one day. The viable microbes are then counted, and the level of killing determined.

[3] = tested on: bacteria, parasites and fungi; assay: Range of antimicrobial activity of granulysin; format: cell-based; conditions: experiments performed in applicant's laboratory
Text: Granulysin is a 9 kDa basic (arginine-rich) protein and is a member of a larger group of proteins, referred to as saposin-like proteins (sphingolipid activator protein like protein=SAPLIP). This family has been highly conserved for almost a billion years, from amoebas to humans. […] This family includes NK-lysin, isolated from pig intestines, and amoebapores, used by amoebas to kill bacterial prey. […] We have synthesized a shorter granulysin peptide 20 amino acid in length and tested for antimicrobial activity. Further modification of this peptide was done by substituting a more hydrophobic amino acid residue, tryptophan at position 44, and tested for antimicrobial activity.

M. tuberculosis = conditions: cited from earlier work
bacterial membranes = conditions: Ernst et al. (2000); cited from earlier work

Molecule | inhibition of TNF-α production by monocytes [1] | inhibition of IL-12 production by monocytes [2] | killing of P. acnes / antimicrobial activity against P. acnes (Propionibacterium acnes) | range of antimicrobial activity [3] | effect on M. tuberculosis by electron microscopy (M. tuberculosis) | alteration of bacterial membranes (bacterial membranes)
granulysin peptide #31-50(W44): Modified 20 amino acid granulysin peptide 31-50 with tryptophan substituted at position 44; probably SEQ ID NO:3 TRVSRTGRSRWRDWSRNFMR | able to inhibit | able to inhibit IL-12 | – | – | – | –
granulysin peptide #31-50: Synthetic peptide of residues 31-50 of human granulysin, SEQ ID NO:2 (TRVCRTGRSRWRDVCRNFMR) (TRVCRTGRSRWRDVCRNFMR; H. sapiens) | – | – | effective at killing P. acnes | – | – | –
B1 | – | – | effective at killing Propionibacterium acnes | wide range of antimicrobial activity against bacteria, parasites and fungi | trigger fluid accumulation in the periplasm of M. tuberculosis | increasing their permeability, inducing lesions on the surface of bacteria and separation of the cell wall and membranes from the cytoplasm
